Earlier results on two substances are cited in paper PMC11431639.

What is called Kd is a measure of binding affinity in units of concentration.

One series has as its target INF2 DAD (Homo sapiens) (UniProt Q27J81).
For another series, the target named is mDia1 DAD (Mus musculus) (UniProt O08808).
Chain of mDia1 DAD (Mus musculus) (O08808 1174-1208): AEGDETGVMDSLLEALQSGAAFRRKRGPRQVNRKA

Chain of INF2 DID (Q27J81 32-261): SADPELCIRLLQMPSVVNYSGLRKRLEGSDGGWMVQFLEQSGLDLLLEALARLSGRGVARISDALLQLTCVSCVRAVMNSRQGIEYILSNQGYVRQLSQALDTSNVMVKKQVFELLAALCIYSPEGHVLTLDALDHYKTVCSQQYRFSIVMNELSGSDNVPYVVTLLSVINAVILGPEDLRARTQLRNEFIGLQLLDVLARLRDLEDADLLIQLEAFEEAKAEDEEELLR
Chain of INF2 DAD (Homo sapiens) (Q27J81 971-1000): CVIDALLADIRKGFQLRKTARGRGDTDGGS
Chain of mDia1 DID (O08808 129-369): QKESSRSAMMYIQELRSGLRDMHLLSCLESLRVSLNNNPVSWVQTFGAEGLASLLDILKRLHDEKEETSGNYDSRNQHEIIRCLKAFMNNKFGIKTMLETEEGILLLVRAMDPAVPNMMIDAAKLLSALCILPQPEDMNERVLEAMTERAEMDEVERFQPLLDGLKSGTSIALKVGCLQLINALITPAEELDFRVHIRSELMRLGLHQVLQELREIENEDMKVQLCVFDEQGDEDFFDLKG

INF2 DID (from UniProt Q27J81): in the series with INF2 DAD (Homo sapiens), the Kd is 1100 nM. Turning to mDia1 DID (from UniProt O08808), in the series with mDia1 DAD (Mus musculus), the Kd was 280 nM.
